Measured values reported in US20120093811A1 (published 2012).

T1: VEGF-D (recombinant human; source not given) (human, UniProt O43915 89-205, limits assumed)
T1 construct: also used here as target of IC50 values averaged over Source 1 and Source 2; also called vascular endothelial growth factor-D
T1 sequence: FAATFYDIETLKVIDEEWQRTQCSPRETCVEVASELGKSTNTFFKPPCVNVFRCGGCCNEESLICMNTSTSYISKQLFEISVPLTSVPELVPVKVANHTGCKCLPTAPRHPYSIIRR


These binders were tested against T1, VEGF-D (recombinant human; source not …) (assay: SPR (BIAcore) off-rate ranking of scFv clones).
Protocol: Screening based on scFv binding properties involved surface plasmon resonance (SPR) measurements with a BIAcore™ biosensor. scFv variants were expressed in 200 μL E. coli cultures and the supernatants used to generate crude off-rate only kinetics, which were assessed “relative” to 1A, or other variants.

Binder | koff
scFv clone CJ17 (scFv) scFv: QVQLVQSGAEVKQPGASVKVSCEASGYTFTGYNMYWVRQAPGQGLEWMGYIDPYNGDTTYNQKFKGRVTMTTDTSTSTAYMKLRSLRSDDTAVYYCARTSYYGGMDYWGRGTLVTVASGGGASGGGGSGGGGSDIVMTQTPLSSPVTLGQPASISCRSSQSLVHSNGNTYLHWLQQRPGQPPRLLIYKVSNRFSGVPDRFSGSGAGTDFTLKISRVEAEDVGVYYCSQSTHVPRTFGQGTKLEIKR | 0.00291 s⁻¹
scFv clone DC56 (scFv) scFv: QVQLVQSGAKVRQPGASVKASCKASGYTFTGYNMYWVRQAPGQGLEWMGYIDPYNGDTTYNQKFKGRVTMTTDTSTSTAYMELRSLRSDDTAVYYCARTSYYGGMDYWGRGTLVTVASGGGASGGGGSGGGGSDIVMTQTPLSSPVTLGQPASISCRSSQSLVHSNGNTYLHWLQQRPGQPPRLLIYKVSNRFSGVPDRFSGSGAGTDFTLKISRVEAEDVGVYYCSQSTHVPRTFGQGTKLEIKR | 0.00723 s⁻¹
scFv clone CZ77 (scFv) scFv: QVQLVQSGAKVKQPGASVKASCKASGYTFTGYNMYWVRQAPGQGLEWMGYIDPYNGDTTYNQKFRGRVTMTTDTSTSTAYMELRSLRSDDTAVYYCARTSYYGGMDYWGRGTLVTVASGGGASGGGGSGGGGSDIVMTQTPLSSPVTLGQPASISCRSSQSLVHSNGNTYLHWLQQRPGQPPRLLIYKVSNRFSGVPDRFSGSGAGTDFTLKISRVEAEDVGVYYCSQSTHVPRTFGQGTKLEIKR | 0.00408 s⁻¹
scFv clone DC64 (scFv) scFv: QVQLVQSGAKVKQPGASMKASCKASGYTFTGYNMYWVRQAPGQGLEWMGYIDPYNGDTTYNQKFKGRVTMTTDTSTSTAYMELRSLRSDDTAVYYCARTSYYGGMDYWGRGTLVTVASGGGASGGGGSGGGGSDIVMTQTPLSSPVTLGQPASISCRSSQSLVHSNGNTYLHWLQQRPGQPPRLLIYKVSNRFSGVPDRFSGSGAGTDFTLKISRVEAEDVGVYYCSQSTHVPRTFGQGTKLEIKR | 0.00738 s⁻¹
scFv clone CZ24 (scFv) scFv: QVQLVQSGAKVKQPGANVKASCKASGYTFTGYNMYWVRQAPGQGLEWMGYIDPYNGDTTYNQKFKGRVTMTTDTSTSTAYMELRSLRSDDTAVYYCARTSYYGGMDYWGRGTLVTVASGGGASGGGGSGGGGSDIVMTQTPLSSPVTLGQPASISCRSSQSLVHSNGNTYLHWLQQRPGQPPRLLIYKVSNRFSGVPDRFSGSGAGTDFTLKISRVEAEDVGVYYCSQSTHVPRTFGQGTKLEIKR | 0.00759 s⁻¹
scFv clone DA74 (scFv) scFv: QVQLAQSGAKVKQPGASVKASCKASGYTFTGYNMYWVRQAPGQGLEWMGYIDPYNGDTTYNQKFKGRVTMTTDTSTSTAYMELRSLRSDDTAVYYCARTSYYGGMDYWGRGTLVTVASGGGASGGGGSGGGGSDIVMTQTPLSSPVTLGQPASISCRSSQSLVHSNGNTYLHWLQQRPGQPPRLLIYKVSNRSSGVPDRFSGSGAGTDFTLKISRVEAEDVGVYYCSQSTHVPRTFGQGTKLEIKR | 0.00424 s⁻¹
scFv clone CK61 (scFv) scFv: QVQLVQSGAKVKQPGASVKVSCKASGYTFTGYNMYWVRQAPGQGLEWMGYIDPYNGDTTYNQKFKGRVTMTTDTSTSTAYMKLRSLRSDDTAVYYCARTSYYGGMDYWGRGTLVTVASGGGASGGGGSGGGGSDIVMTQTPLSSPVTLGQPASISCRSSQSLVHSNGNTYLHWLQQRPGQPPRLLIYKVSNRFSGVPDRFSGSGAGTDFTLKISRVEAEDVGVYYCSQSTHVPRTFGQGTKLEIKR | 0.00522 s⁻¹
scFv clone CZ13 (scFv) scFv: QVQLAQSGAKVKQPGASVKASCKASGYTFTGYNMYWVRQAPGQGLEWMGYIDPYNGDTTYNQKFKGRVTMTTDTSTSTAYMELRSLRSDDTAVYYCARTSYYGGMDYWGRGTLVTVASGGGASGGGGSGGGGSDIVMTQTPLSSPVTLGQPASISCRSSQSLVHSNGNTYLHWLQQRPGQPPRLLIYKVSNRFSGVPDRFSGSGAGTDFTLKISRVEAEDVGVYYCSQSTHVPRTFGQGTKLEIKR | 0.00826 s⁻¹

The remaining lines, values ahead:

koff | Binder
0.00795 s⁻¹ | scFv clone AA16 (scFv) scFv: QAQLVQSGAEVKQPGASVKVSCKASGYTFTGYNMYWVRQAPGQGLEWMGYIDPYNGDTTYNQKFKGRVTMTTDTSTSTAYMELRSLRSDDTAVYYCARTSYYGGMDYWGRGTLVTVASGGGASGGGGSGGGGSDIVMTQTPLSSPVTLGQPASISCRSSQSLVHSNGNTYLHWLQQRPGQPPRLLIYKVSNRFSGVPDRFSGSGAGTDFTLKISRVEAEDVGVYYCSQSTHVPRTFGQGTKLEIKR
0.00575 s⁻¹ | scFv clone DB29 (scFv) scFv: QVQLVQSGAKVKQPGASVKASCKASGYTFTGYNMYWVRQAPGQGLEWMGYIDPYNGDTTYNQKFKGRVTMTTDTSTSTAYMELRSLRSDDTAVYYCARTSYYGGMDYWGRGTLVTVASGGGASGGGGSGGGGSDIVMTQTPLSGPVTLGQPASISCRSSQSLVHSNGNTYLHWLQQRPGQPPRLLIYKVSNRFSGVPDRFSGSGAGTDFTLKISRVEAEDVGVYYCSQSTHVPRTFGQGTKLEIKR
0.00798 s⁻¹ | scFv clone DE03 (scFv) scFv: QVQLVQSGAKVKQPGASVKASCKAGGYTFTGYNMYWVRQAPGQGLEWMGYIDPYNGDTTYNQKFKGRVTMTTDTSTSTAYMELRSLRSDDTAVYYCARTSYYGGMDYWGRGTLVTVASGGGASGGGGSGGGGSDIVMTQTPLSSPVTLGQPASISCRSSQSLVHSNGNTYLHWLQQRPGQPPRLLIYKVSNRFSGVPDRFSGSGAGTDFTLKISRVEAEDVGVYYCSQSTHVPRTFGQGTKLEIKR
0.00341 s⁻¹ | scFv clone D69 (scFv) scFv: QVQLVQSGAEVKQPGASVKVSCKASGYTFTGYNMYWVRQAPGQGLEWMGYIDPYNGDTTYNQKFKGRVTMTTDTSTSTAYMELRSLRSDDTAVYHCARTSYYGGMDYWGRGTLVTVASGGGASGGGGSGGGGSDIVMTQTPLSSPVTLGQPASISCRSSQSLVHSNGNTYLHWLQQRPGQPPRLLIYKVSNRFSGVPGRFSGSGAGTDFTLKISRVEAEDVGVYYCSQSTHVPRTFGQGTKLEIKR
0.00373 s⁻¹ | scFv clone DD25 (scFv) scFv: QVQLVQSGAKVKQPGASVKASCKASGYTFTGYNMYWVRQAPGQGLEWVGYIDPYNGDTTYNQKFKGRVTMTTDTSTSTAYMELRSLRSDDTAVYYCARTSYYGGMDYWGRGTLVTVASGGGASGGGGSGGGGSDIVMTQTPLSSPVTLGQPASISCRSSQSLVHSNGNTYLHWLQQRPGQPPRLLIYKVSNRFSGVPDRFSGSGAGTDFTLKISRVEAEDVGVYYCSQSTHVPRTFGQGTKLEIKR
0.00362 s⁻¹ | scFv clone BF36 (scFv) scFv: QVQLVQSGAEVKQPGASVKVSCKASGYTFTGYNMYWVRQAPGQGLEWMGYIDPYNGDTTYNQRFKGRVTMTTDTSTSTAYMKLRSLRSDDTAVYYCARTSYYGGMDYWGRGALVTVASGGGASGGGGSGGGGSDIVMTQTPLSSPVTLGQPASISCRSSQSLVHSNGNTYLHWLQQRPGQPPRLLIYKVSNRFSGVPDRFSGSGAGTDFTLRISRVEAEDVGVYYCSQSTHVPRTFGQGTKLEIKR
0.00726 s⁻¹ | scFv clone CW16 (scFv) scFv: QVQLVQSGAEVKQPGASVKVSCKASGYTFTGYNMYWVRQAPGQGLEWMGYIDPYNGDTTYNQKFKGRVTMTTDTSTSTAYMELRSLRSGDTAVYYCARTSYYGGMDYWGRGTLVTVASGGGASGGGGSGGGGSDIVMTQTPLSSPATLGQPASISCRSSQSLVHSNGNTYLHWLQQRPGQPPRLLIYKVSNRFSGVPDRFSGSGAGTDFTLKISRVEAEDVGVYYCSQSTHVPRTFGQGTKLEIKR
0.00739 s⁻¹ | scFv clone CX03 (scFv) scFv: QVQLVQSGAEVKQPGASVTVSCKASGYTFTGYNMYWVRQAPGQGLEWMGYIDPYNGDTTYNQKFKGRVTMTTDTSTSTAYMELRSLRSDDTAVYYCARTSYYGGMDYWGRGTLVTVASGGGASGGGGSGGGGSDIVMTQTPLSSPVTLGQPASISCRSSQSLVHSNGNTYLHWLQQRPGQPPRLLIYKVSNRFSGVPGRFSGSGAGTDFTLKISRVEAEDVGVYYCSQSTHVPRTFGQGTKLEIKR
0.0091 s⁻¹ | scFv clone DD17 (scFv) scFv: QVQLVQSGAKVKQPGAGVKASCKASGYTFTGYNMYWVRQAPGQGLEWMGYIDPYNGDTTYNQKFKGRVTMTTDTSTSTAYMELRSLRSDDTAVYYCARTSYYGGMDYWGRGTLVTVASGGGASGGGGSGGGGSDIVMTQTPLSSPVTLGQPASISCRSSQSLVHSNGNTYLHWLQQRPGQPPRLLIYKVSNRFSGVPDRFSGSGAGTDFTLKISRVEAEDVGVYYCSQSTHVPRTFGQGTKLEIKR
0.00637 s⁻¹ | scFv clone AC75 (scFv) scFv: QVQLVQSGAEVKQPGASVKVSCKASGYTFTGYNMYWVRQAPGQGLEWMGYIDPYNGDTTYNQKFKGRVTMTTDTSTSTAYVELRSLRSDDTAVYYCARTSYYGGMDYWGRGTLVTVASGGGASGGGGSGGGGSDIVMTQTPLSSPVTLGQPASISCRSSQSLVHSNGNTYLHWLQQRPGQPPRLLIYKVSNRFSGVPDRFSGSGAGTDFTLKISRVEAEDVGVYYCSQSTHVPRTFGQGTKLEIKR
0.00637 s⁻¹ | scFv clone DD76 (scFv) scFv: QVQLVQSGAKVKQPGASVKASCKASGYTFTGYNMYWVRQAPGQGLEWMGYIDPYNGDTTYNQKFKGRVTMTTDTNTSTAYMELRSLRSDDTAVYYCARTSYYGGMDYWGRGTLVTVASGGGASGGGGSGGGGSDIVMTQTPLSSPVTLGQPASISCRSSQSLVHSNGNTYLHWLQQRPGQPPRLLIYKVSNRFSGVPDRFSGSGAGTDFTLKISRVEAEDVGVYYCSQSTHVPRTFGQGTKLEIKR
0.00379 s⁻¹ | scFv clone CI67 (scFv) scFv: QVQLVQSGAEVKQPGASVKVSCKASGYTFTGYNMYWVRQAPGQGLEWMGYIDPYNGDTTYNQKFKGRATMTTDTSTSTAYMKLRSLRSDDTAVYYCARTSYYGGMDYWGRGTLVTVASGGGASGGGGSGGGGSDIVMTQTPLSSPVTLGQPASISCRSSQSLVHSNGNTYLHWLQQRPGQPPRLLIYKVSNRFSGVPDRFSGSGAGTDFTLKISRVEAEDVGVYYCSQSAHVPRTFGQGTKLEIKR
